Results: patent US20240084003A1 (SIMCERE ZAIMING PHARMACEUTICAL, published 2024)

Experiments:
[1] = biological target: T1, human CD22-ECD-His protein (human, UniProt P20273 20-687); test: ELISA, Ab 0.01 nM
T1 construct: Made in house in HEK293E; also called hCD22-ECD-His; recombinant human CD22-ECD His protein; not shown: His tag
T1 sequence: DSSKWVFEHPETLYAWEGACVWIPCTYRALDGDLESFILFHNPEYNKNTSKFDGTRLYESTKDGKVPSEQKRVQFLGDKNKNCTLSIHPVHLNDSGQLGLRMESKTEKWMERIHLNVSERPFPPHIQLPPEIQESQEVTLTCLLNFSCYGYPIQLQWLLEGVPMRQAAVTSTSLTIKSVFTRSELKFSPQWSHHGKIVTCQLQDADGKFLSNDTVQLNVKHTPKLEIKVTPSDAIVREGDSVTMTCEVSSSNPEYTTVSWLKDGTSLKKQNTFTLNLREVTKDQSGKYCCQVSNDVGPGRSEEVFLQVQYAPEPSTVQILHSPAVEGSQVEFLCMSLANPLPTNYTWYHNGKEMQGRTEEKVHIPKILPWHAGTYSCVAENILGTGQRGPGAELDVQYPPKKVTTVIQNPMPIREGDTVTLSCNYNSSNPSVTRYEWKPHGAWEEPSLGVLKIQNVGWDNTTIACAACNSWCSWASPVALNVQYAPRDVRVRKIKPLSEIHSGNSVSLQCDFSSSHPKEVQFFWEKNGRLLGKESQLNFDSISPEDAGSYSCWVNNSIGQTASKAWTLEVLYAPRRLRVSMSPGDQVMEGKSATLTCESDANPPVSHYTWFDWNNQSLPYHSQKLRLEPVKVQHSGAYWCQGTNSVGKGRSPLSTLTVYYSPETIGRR
Description: (§1) In order to detect the binding activity of CD22 human-murine chimeric antibodies to CD22 protein, the purified human CD22-ECD-His protein obtained in Example 2 was diluted with PBS to a final concentration of 2 μg/mL, and then added to 96-well ELISA plate at 100 μl/well. The plate was sealed with plastic film and incubated overnight at 4° C., the plate was washed 2 times with PBS the next day, and then a blocking solution [PBS+2% (w/w) BSA] was added for blocking at room temperature for 2 hours. […] After incubation at 37° C. for 2 hours, the plate was washed 3 times with PBS. HRP (horseradish peroxidase)-labeled secondary antibody (purchased from Sigma, catalog number: A0170) was added, and incubated at 37° C. for 2 hours, and the plate was washed 5 times with PBS. TMB substrate was added at 50 μl/well, and incubated at room temperature for 30 minutes, then a stop solution (1.0 N HCl) was added at 50 μl/well.

[2] = biological target: T1, human CD22-ECD-His protein; test: ELISA, Ab 0.10 nM
Description: as §1

[3] = biological target: T1, human CD22-ECD-His protein; test: ELISA, Ab 0.001 nM
Description: as §1

[4] = biological target: T1, human CD22-ECD-His protein; test: ELISA, Ab 10.00 nM
Description: as §1

[5] = biological target: T1, human CD22-ECD-His protein; test: ELISA, Ab 0.0001 nM
Description: as §1

[6] = biological target: T1, human CD22-ECD-His protein; test: ELISA, Ab 100.00 nM
Description: as §1

[7] = biological target: T1, human CD22-ECD-His protein; test: ELISA, Ab 0.00001 nM
Description: as §1

[8] = biological target: T1, human CD22-ECD-His protein; test: ELISA, human CD22-ECD-His coated
Description: as §1

[9] = biological target: T2, murine CD22 protein (ACROBiosystems, SI2-M52Ha) (murine, UniProt P35329 22-708); test: ELISA, murine CD22-ECD-His coated
T2 construct: extracellular domain; also called murine CD22-ECD; murine CD22-ECD-His
T2 sequence (looked up): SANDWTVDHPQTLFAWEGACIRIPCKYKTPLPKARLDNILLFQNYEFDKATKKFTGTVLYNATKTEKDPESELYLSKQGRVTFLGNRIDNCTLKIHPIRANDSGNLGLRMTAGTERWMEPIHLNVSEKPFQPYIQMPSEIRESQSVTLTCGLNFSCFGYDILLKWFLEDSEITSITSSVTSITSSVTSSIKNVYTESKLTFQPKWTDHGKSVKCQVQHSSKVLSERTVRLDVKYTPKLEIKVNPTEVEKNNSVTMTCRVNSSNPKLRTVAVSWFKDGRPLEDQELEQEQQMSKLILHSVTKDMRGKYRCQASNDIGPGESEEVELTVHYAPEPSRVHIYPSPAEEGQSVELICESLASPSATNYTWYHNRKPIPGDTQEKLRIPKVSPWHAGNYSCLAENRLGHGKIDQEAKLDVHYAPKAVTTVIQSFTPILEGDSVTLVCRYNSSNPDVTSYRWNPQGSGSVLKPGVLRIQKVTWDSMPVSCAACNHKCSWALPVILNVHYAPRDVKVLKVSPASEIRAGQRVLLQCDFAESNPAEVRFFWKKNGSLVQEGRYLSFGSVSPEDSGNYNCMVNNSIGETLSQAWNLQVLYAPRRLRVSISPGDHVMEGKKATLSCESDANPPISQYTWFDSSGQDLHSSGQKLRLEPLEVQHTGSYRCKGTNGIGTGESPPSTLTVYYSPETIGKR
Description: as §1
In order to detect the species cross-binding activity of the chimeric antibodies, an ELISA plate was coated with commercial murine CD22 protein (ACROBiosystems, catalog number: SI2-M52Ha) and monkey CD22 protein (ACROBiosystems, catalog number: SI2-R52Ha), respectively, and the ELISA detection was performed according to the method in Example 5.1.

[10] = biological target: T3, human CD22 domain1-4-His (human, UniProt P20273 20-425); test: ELISA, human CD22 domain1-4-His coated
T3 construct: also called hCD22 domain1-4-His; not shown: His tag
T3 sequence: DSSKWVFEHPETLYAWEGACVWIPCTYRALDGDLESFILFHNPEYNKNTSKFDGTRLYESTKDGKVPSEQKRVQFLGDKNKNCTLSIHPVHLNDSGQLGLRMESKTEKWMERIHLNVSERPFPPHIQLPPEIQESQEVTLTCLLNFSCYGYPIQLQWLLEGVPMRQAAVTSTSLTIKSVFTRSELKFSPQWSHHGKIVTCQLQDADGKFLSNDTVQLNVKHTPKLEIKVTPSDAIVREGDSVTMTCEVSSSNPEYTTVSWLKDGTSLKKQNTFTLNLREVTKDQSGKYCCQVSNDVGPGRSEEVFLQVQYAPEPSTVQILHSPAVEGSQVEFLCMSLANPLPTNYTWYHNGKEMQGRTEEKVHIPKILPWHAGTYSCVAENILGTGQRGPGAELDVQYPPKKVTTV

[11] = biological target: T4, human CD22 domain5-7-His (human, UniProt P20273 414-687); test: ELISA, human CD22 domain5-7-His coated
T4 construct: also called hCD22 domain5-7-His; not shown: His tag
T4 sequence: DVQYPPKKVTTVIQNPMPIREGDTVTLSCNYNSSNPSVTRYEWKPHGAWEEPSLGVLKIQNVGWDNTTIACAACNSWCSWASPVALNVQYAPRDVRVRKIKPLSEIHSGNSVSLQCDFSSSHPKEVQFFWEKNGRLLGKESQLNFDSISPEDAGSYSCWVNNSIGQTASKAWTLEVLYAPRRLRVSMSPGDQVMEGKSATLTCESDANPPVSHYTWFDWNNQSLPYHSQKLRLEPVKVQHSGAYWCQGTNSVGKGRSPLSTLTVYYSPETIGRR

[12] = biological target: T5, human CD22 domain5-7-His (human, UniProt P20273 414-687); test: ELISA, plate coated with human CD22 domain5-7-His
T5 construct: also called hCD22 domain5-7-His; not shown: His tag
T5 sequence: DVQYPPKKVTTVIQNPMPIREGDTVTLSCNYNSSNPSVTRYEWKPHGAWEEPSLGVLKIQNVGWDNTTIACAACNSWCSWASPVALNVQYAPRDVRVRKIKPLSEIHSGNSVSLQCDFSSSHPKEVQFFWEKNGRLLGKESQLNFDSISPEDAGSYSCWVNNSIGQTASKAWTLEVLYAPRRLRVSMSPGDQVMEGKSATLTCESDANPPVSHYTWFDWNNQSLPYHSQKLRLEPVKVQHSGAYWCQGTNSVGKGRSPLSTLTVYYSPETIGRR

[13] = biological target: T6, rhesus monkey CD22-ECD-His protein (rhesus monkey, UniProt H9G1X2 18-686); test: SPR (Biacore), antibody captured on Protein A chip, rhesus CD22 in solution
T6 construct: extracellular domain; also called monkey CD22 protein
T6 sequence: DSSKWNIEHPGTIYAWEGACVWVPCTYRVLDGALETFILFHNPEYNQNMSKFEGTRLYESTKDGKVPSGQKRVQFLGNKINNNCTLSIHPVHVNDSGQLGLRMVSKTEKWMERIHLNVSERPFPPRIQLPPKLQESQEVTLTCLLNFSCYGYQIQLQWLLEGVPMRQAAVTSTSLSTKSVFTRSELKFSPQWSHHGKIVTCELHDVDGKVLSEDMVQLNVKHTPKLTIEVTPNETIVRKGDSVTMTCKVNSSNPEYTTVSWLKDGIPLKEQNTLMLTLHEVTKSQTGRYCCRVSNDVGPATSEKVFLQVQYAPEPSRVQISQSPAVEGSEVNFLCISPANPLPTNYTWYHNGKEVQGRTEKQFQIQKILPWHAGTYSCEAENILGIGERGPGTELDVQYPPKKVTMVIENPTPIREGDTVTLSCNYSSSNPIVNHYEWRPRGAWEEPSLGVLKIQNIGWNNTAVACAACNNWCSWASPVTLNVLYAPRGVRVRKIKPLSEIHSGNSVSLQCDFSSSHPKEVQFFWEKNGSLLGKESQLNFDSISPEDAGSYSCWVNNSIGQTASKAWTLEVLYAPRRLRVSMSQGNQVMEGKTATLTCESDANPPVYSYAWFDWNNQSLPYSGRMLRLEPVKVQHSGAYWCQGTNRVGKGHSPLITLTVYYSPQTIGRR

[14] = biological target: T7, human CD22-ECD-His protein (human, UniProt P20273 20-687); test: SPR (Biacore), antibody captured on Protein A chip, CD22-ECD-His in solution
T7 construct: Recombinant, from HEK293E cells; also called hCD22-ECD-His; human CD22-His protein; not shown: His tag
T7 sequence: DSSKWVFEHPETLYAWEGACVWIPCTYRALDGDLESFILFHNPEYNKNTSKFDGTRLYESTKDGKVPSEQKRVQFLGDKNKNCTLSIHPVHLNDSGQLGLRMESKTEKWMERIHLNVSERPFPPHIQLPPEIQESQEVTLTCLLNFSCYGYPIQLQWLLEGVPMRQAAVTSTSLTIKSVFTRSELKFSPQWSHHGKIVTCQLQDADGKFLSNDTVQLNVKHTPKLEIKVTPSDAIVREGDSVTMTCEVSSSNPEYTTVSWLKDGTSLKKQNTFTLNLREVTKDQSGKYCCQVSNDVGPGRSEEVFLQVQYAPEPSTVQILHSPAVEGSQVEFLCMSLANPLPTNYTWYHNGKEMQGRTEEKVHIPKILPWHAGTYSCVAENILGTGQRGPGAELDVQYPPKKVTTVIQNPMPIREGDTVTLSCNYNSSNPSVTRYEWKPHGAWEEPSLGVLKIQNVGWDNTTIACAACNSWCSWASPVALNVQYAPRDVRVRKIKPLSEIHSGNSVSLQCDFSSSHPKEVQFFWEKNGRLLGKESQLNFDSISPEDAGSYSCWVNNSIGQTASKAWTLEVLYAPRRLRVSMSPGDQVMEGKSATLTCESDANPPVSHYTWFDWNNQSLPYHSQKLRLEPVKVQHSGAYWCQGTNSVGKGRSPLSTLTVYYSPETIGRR
Description: Sample buffer and running buffer were HBS-EP+(10 mM HEPES, 150 mM NaCl, 3 mM EDTA, 0.05% surfactant P20) (GE Healthcare; BR-1006-69). The flow-through cell was set to 25° C. The sample block was set to 16° C. Both were pretreated with the running buffer. In each cycle, the antibody to be tested was first captured with a Protein A chip, then a single concentration of CD22 antigen protein was injected. The binding and dissociation process of the antibody and the antigen protein was recorded, and finally Glycine pH 1.5 (GE Healthcare; BR-1003-54) was used to complete chip regeneration. Binding was measured by injecting different concentrations of recombinant human CD22-ECD His protein in solution for 240 s with a flow rate of 30 μL/min. The concentration started from 200 nM (see the detailed results for the actual concentration in the test) and was diluted at 1:1, making a total of 5 concentrations. The dissociation phase was monitored for up to 600 s and was triggered by switching from sample solution to running buffer. The surface was regenerated by washing with a 10 mM of glycine solution (pH 1.5) for 30 s at a flow rate of 30 μL/min. Bulk refractive index difference was corrected by subtracting the response obtained from the goat anti-human Fc surface. Blank injection was also subtracted (=double reference). For calculation of apparent KD and other kinetic parameters, Langmuir 1:1 model was used.

B1: F1.267.9 (antibody, human IgG1, kappa, V domains shown)
VH: EVQLQQSGPVLVKPGASVKMSCKASGYTFTDFYMNWAKQSHGKSLEWVGVINPYNGGINYNQKFKGKATLTVDKSSSTAYMEFNSLTSEDSAVYYCARRMEYHAMDYWGQGTSVTVSS
VL: DIVLTQSPASLAVSLGQRATISCRASESVDNYGFDFIHWYQQKPGQPPKLLIYRASNLESGIPARFSGSGSRPDFTLTINPVETDDVATYYCQQSIKDPWTFGGGTKLEIKR
notes: Human-murine chimeric IgG1, kappa
OD450 [1]: 1.47 OD450 | OD450 [2]: 2.39 OD450 | OD450 [3]: 0.34 OD450 | OD450 [4]: 2.55 OD450 | OD450 [5]: 0.1 OD450 | OD450 [6]: 2.56 OD450 | OD450 [7]: 0.06 OD450 | EC50 (read off the curve) [8]: ~80 pM | binding result [9]: no binding (tested: 100 nM) | EC50 (read off the curve) [10]: ~200 pM | binding result [11]: no binding (tested: 100 nM)

B2: HA22-hIgG1 (antibody, V domains shown)
VH: EVQLVESGGGLVKPGGSLKLSCAASGFAFSIYDMSWVRQTPEKCLEWVAYISSGGGTTYYPDTVKGRFTISRDNAKNTLYLQMSSLKSEDTAMYYCARHSGYGTHWGVLFAYWGQGTLVTVSA
VL: DIQMTQTTSSLSASLGDRVTISCRASQDISNYLNWYQQKPDGTVKLLIYYTSILHSGVPSRFSGSGSGTDYSLTISNLEQEDFATYFCQQGNTLPWTFGCGTKLEIKR
binding result [12]: no binding | Kd [13]: 3410 pM | koff [13]: 0.000234 s⁻¹ | kon [13]: 68600 M⁻¹ s⁻¹ | Kd [14]: 1330 pM | koff [14]: 8.96e-05 s⁻¹ | kon [14]: 67400 M⁻¹ s⁻¹
